Source: US20150132307A1 (Hoffmann-La Roche, published 2015)
Residue numbers refer to the chain shown, from its start. Names and notes keep the numbering of the source.

T1: Human IL17F (human, UniProt Q96PD4 31-163)
T1 sequence: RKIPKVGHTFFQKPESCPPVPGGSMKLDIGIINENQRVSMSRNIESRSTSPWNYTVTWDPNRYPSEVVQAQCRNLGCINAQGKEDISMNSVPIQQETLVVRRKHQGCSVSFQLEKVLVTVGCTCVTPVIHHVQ

T2: Human IL17B (human, UniProt Q9UHF5 21-180)
T2 sequence: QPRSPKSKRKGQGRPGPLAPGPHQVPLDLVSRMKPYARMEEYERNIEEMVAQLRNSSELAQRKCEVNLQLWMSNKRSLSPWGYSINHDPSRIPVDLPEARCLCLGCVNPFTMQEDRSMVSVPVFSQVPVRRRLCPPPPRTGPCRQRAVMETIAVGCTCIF

T3: Human IL17C (human, UniProt Q9P0M4 19-197)
T3 sequence: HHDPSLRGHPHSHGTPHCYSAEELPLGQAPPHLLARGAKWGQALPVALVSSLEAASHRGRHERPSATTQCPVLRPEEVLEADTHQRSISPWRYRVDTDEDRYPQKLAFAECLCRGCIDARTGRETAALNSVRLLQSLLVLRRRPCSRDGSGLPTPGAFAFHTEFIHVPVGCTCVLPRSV

T4: Human IL17D (human, UniProt Q8TAD2 16-202, limits assumed)
T4 sequence: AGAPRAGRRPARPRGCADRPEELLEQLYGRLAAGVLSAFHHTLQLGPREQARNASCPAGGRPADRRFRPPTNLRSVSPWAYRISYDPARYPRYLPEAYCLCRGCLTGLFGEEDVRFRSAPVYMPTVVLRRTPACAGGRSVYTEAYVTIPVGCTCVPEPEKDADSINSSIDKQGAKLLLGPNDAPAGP

T5: human Tweak-Fc (human, UniProt O43508 106-249, limits assumed)
T5 construct: not shown: Fc part
T5 sequence: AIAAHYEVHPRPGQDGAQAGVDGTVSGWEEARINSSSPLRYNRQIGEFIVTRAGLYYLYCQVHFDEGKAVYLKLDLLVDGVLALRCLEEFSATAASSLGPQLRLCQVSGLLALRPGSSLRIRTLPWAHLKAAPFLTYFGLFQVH

T6: IL-17 F/F (human, UniProt Q96PD4 31-163)
T6 construct: read as the homodimer of IL17F
T6 sequence: T1 sequence

T7: Recombinant human TWEAK (R&D Systems; Cat. #1090-TW/CF) (human, UniProt O43508 97-249, limits assumed)
T7 sequence: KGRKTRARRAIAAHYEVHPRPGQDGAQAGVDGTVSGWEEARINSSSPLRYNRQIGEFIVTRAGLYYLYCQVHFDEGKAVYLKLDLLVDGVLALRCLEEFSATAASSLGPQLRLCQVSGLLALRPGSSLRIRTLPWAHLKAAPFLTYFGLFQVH

B1: <IL17> 9C6-2B6 (antibody, V domains shown)
VH: QVQLKESGPGLVAPSQSLSITCTVSGFSLDSYGVHWVRQPPGKGLEWLVVIWSDGTTTYNSALKSRLSITKDNSKSQVFLKMNSLQTDDTAIYYCARDTHYRLYYYAMDYWGQGTSVTVSS
VL: DVVMTQTPLSLPVSLGDQASISCRSSQSLVHSNGDTYFHWYLQKPGQSPKLLIYKVSNRFSGVPDRFSGSGSGTDFTLKINRVEAEDLGVYFCSQTTHAPFTFGSGTKLEIK
notes: Mouse hybridoma antibody; also called mouse clone <IL17>9C6-2B6
B2: Bispecific <Tweak-IL-17> #4 antibody (bispecific antibody, human IgG1, kappa)
heavy 1: not shown
heavy 2: not shown
light: DIVMTQSPLSLPVTPGEPASISCRSSQSLVHSNGDTYFHWYLQKPGQSPQLLIYKVSNRFSGVPDRFSGSGSGTDFTLKISRVEAEDVGVYYCSQTTHAPFTFGQGTKLEIKRTVAAPSVFIFPPSDEQLKSGTASVVCLLNNFYPREAKVQWKVDNALQSGNSQESVTEQDSKDSTYSLSSTLTLSKADYEKHKVYACEVTHQGLSSPVTKSFNRGEC
notes: Bivalent one-armed scFab format (WO 2011/117330), IgG1 knobs-into-holes
B3: Bispecific <Tweak-IL-17> #20 antibody (bispecific antibody, human IgG4 S228P, kappa)
heavy 1: EVQLVESGGGLVQPGGSLRLSCAASGFSLDSYGVHWVRQATGKGLEWVSVIWSDGTTTYNSALKSRFTISRENAKNSLYLQMNSLRAGDTAVYYCARDTHYRLYYYAMDYWGQGTTVTVSSASTKGPSVFPLAPCSRSTSESTAALGCLVKDYFPEPVTVSWNSGALTSGVHTFPAVLQSSGLYSLSSVVTVPSSSLGTKTYTCNVDHKPSNTKVDKRVESKYGPPCPPCPAPEFEGGPSVFLFPPKPKDTLMISRTPEVTCVVVDVSQEDPEVQFNWYVDGVEVHNAKTKPREEQFNSTYRVVSVLTVLHQDWLNGKEYKCKVSNKGLPSSIEKTISKAKGQPREPQVCTLPPSQEEMTKNQVSLSCAVKGFYPSDIAVEWESNGQPENNYKTTPPVLDSDGSFFLVSRLTVDKSRWQEGNVFSCSVMHEALHNHYTQKSLSLSLGK
heavy 2: not shown
light: B2 light
notes: Bivalent one-armed scFab format, IgG4 S228P/L235E knobs-into-holes
B4: <IL17> 9C6-2B6-134 (antibody, V domains shown)
VH: EVQLVESGGGLVQPGGSLRLSCAASGFSLDSYGVHWVRQAPGKGLEWVSVIWSDGTTTYNSALKSRFTISRDNSKNTLYLQMNSLRAEDTAVYYCARDTHYRLYYYAMDYWGQGTTVTVSS
VL: DIVMTQSPLSLPVTPGEPASISCRSSQSLVHSNGDTYFHWYLQKPGQSPQLLIYKVSNRFSGVPDRFSGSGSGTDFTLKISRVEAEDVGVYYCSQTTHAPFTFGQGTKLEIK
notes: Humanized variant
B5: <IL17> 9C6-2B6-136 (antibody, V domains shown)
VH: B4 VH with P41T, D72E, S74A, T77S, E88G
VL: B4 VL
notes: Humanized variant with HC136 and LC136

Columns and labels:
Human IL17F = target: T1, Human IL17F; experiment: ELISA on coated IL-17 subtype; OD relative to IL-17A binding (100)
Description: (§1) NUNC® Maxisorp plates (96-well) are coated with recombinant human IL-17 (Peprotech #200-17, www.peprotech.com) at a concentration of 0.5 μg/ml in PBS ([…]). Plates are incubated at 37° C. on an orbital shaker with agitation for 2 hours. Thereafter coating solution is removed and 100 μl/well PBSTC (phosphate buffered saline, 0.05% Tween®20, 2% chicken serum) is added. Plates are incubated at room temperature for 1 hour. […] The second antibody is diluted 1:10000 in PBSTC and plates are incubated for 1 hour at room temperature with agitation. Second antibody is removed, plates are washed three times with 200 μl/well PBST (phosphate buffered saline, 0.05% Tween®20) and 100 μl/well ABTS® (Roche Diagnostics GmbH) is added. Optical density is measured at 405/492 nm in relation to IL-17A binding (set as 100%). Binding to other human IL-17 subtypes (IL-17B, IL-17C, IL-17D, IL-17E and IL-17F) were performed with the same assay format.

Human IL17B = target: T2, Human IL17B; experiment: as above
Description: as §1

Human IL17C = target: T3, Human IL17C; experiment: as above
Description: as §1

Human IL17D = target: T4, Human IL17D; experiment: as above
Description: as §1

IL-17 A/F = target: T8, IL-17 A/F (human, UniProt Q16552 24-155; Q96PD4 31-163); experiment: SPR (BIAcore T100), antibody captured by anti-human F(ab')2, IL17 as analyte, 25 C, 1:1 model
T8 construct: read as the heterodimer of IL17A and IL17F
T8 sequence (Q16552 24-155 limits assumed, one chain of several): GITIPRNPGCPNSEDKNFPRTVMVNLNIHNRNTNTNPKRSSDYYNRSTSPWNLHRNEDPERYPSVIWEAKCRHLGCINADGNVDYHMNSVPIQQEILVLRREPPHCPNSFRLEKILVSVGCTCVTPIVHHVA
Description: (§2) Around 12000 resonance units (RU) of the capturing system (10 μg/ml goat anti human F(ab′)2; Order Code: 28958325; GE Healthcare Bio-Sciences AB, Schweden) were coupled on a CMS chip at pH 5.0 by using an amine coupling kit supplied by the GE Healthcare. The sample and system buffer was PBS-T (10 mM phosphate buffered saline including 0.05% Tween20) pH 7.4. The bispecific antibody was captured by injecting a 50 nM solution for 1 min at a flow of 10 μl/min. Association was measured by injection human IL17 in various concentrations in solution for 3 min at a flow of 30 μl/min starting with 50 nM in 1:1 dilutions. The dissociation phase was monitored for up to 5 min and triggered by switching from the sample solution to running buffer. The surface was regenerated by two times 60 sec. washing with a glycin pH 2.1 solution at a flow rate of 30 μl/min. Bulk refractive index differences were corrected by subtracting the response obtained from a goat anti human F(ab′)2 surface. Blank injections are also subtracted (=double referencing). For calculation of apparent KD and other kinetic parameters the Langmuir 1:1 model was used.

human IL17A/A = human IL17A/A (human, UniProt Q16552 24-155, limits assumed); experiment: SPR (BIAcore T100), antibody captured by anti-human F(ab')2, IL17 as analyte, 25 C, apparent KD, 1:1 model
Chain of human IL17A/A (Q16552 24-155 limits assumed): as the sequence (Q16552 24-155 limits assumed, one chain of several) above
Description: as §2

human Tweak-Fc [1] = target: T5, human Tweak-Fc; experiment: SPR (BIAcore T100), TWEAK ligand (Tweak-Fc) amine-coupled on C1 chip, bispecific antibody as analyte, 25 C
Description: (§3) The BIAcore® system is well established for the study of molecule interactions. SPR-technology is based on the measurement of the refractive index close to the surface of a gold coated biosensor chip. Changes in the refractive index indicate mass changes on the surface caused by the interaction of immobilized ligand with analyte injected in solution. The mass increases if molecules bind immobilized ligands on the surface, and vice versa, the mass decreases in case of dissociation of the analyte from the immobilized ligand (reflecting complex dissociation). SPR allows a continuous real-time monitoring of ligand/analyte binding and thus the determination of the association rate constant (ka), the dissociation rate constant (kd), and of the equilibrium constant (KD).
(§4) Around 100 resonance units (RU) of TWEAK was immobilized on the C1 chip surface at pH 5.0 using an amine coupling kit supplied by the GE Healthcare. The sample and system buffer was PBS-T (10 mM phosphate buffered saline including 0.05% Tween20) pH 7.4. Association was measured by injection the bispecific antibody in various concentrations in solution for 3 min at a flow of 30 μl/min starting with 50 nM in 1:1 dilutions. The dissociation phase was monitored for up to 10 min and triggered by switching from the sample solution to running buffer. […]

IL-17 F/F = target: T6, IL-17 F/F; experiment: SPR (BIAcore T100), antibody captured by anti-human F(ab')2, IL17 as analyte, 25 C
Description: as §2

human Tweak-Fc [2] = target: T5, human Tweak-Fc; experiment: SPR (BIAcore T100), TWEAK ligand (Tweak-Fc) amine-coupled on C1 chip, bispecific antibody as analyte, 25 C, apparent KD, 1:1 model
Description: as §3, §4

human Tweak-Fc [3] = target: T5, human Tweak-Fc; experiment: SPR (BIAcore T100), TWEAK ligand (Tweak-Fc) amine-coupled on C1 chip, bispecific antibody as analyte, 25 C, 1:1 model
Description: as §3
Around 100 resonance units (RU) of TWEAK was immobilized on the C1 chip surface at pH 5.0 using an amine coupling kit supplied by the GE Healthcare. The sample and system buffer was PBS-T (10 mM phosphate buffered saline including 0.05% Tween20) pH 7.4. Association was measured by injection the bispecific antibody in various concentrations in solution for 3 min at a flow of 30 μl/min starting with 50 nM in 1:1 dilutions. The dissociation phase was monitored for up to 10 min and triggered by switching from the sample solution to running buffer. The surface was regenerated by three times 30 sec. washing with a 3M MgCl2 solution at a flow rate of 30 μl/min. Bulk refractive index differences were corrected by subtracting the response obtained from a blank-coupled surface. Blank injections are also subtracted (=double referencing). For calculation of apparent KD and other kinetic parameters the Langmuir 1:1 model was used.

[4] = target: T9, recombinant human IL-17 (Peprotech #200-17) (human, UniProt Q16552 20-155); experiment: cell-based or functional assay
T9 sequence (Q16552 20-155 limits assumed): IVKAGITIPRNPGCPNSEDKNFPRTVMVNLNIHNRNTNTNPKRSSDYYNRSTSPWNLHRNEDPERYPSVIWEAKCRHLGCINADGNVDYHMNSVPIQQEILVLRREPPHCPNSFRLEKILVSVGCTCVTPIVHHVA

[5] = target: T7, Recombinant human TWEAK (R&D Systems; …); experiment: cell-based or functional assay
[6] = target: T9, recombinant human IL-17 (Peprotech …); experiment: cell-based or functional assay; remark: listed apart in the source

| Binder | binding result (Human IL17F) | binding result (Human IL17B) | binding result (Human IL17C) | binding result (Human IL17D) | Kd (IL-17 A/F) | Kd (human IL17A/A) | T½ (human Tweak-Fc [1]) | binding result (IL-17 F/F) | Kd (human Tweak-Fc [2]) | koff (human Tweak-Fc [3]) | kon (human Tweak-Fc [3]) | IL-6 IC50 [nM] per valency (IL-17 induced cytokine production, HFLS-RA) [4] | IL-8 IC50 [nM] per valency (IL-17 induced cytokine production, HFLS-RA) [4] | IC50 (nM) per valency, Tweak induced HFLS proliferation (CellTiter Glo) [5] | IL-8 Inhibition IC50 (nM) (CCD-25SK cells, IL-17A + TNF-alpha) [6] |
| --- | --- | --- | --- | --- | --- | --- | --- | --- | --- | --- | --- | --- | --- | --- | --- |
| B1 | no binding (tested: 10 µg/ml antibody) | no binding (tested: 10 µg/ml antibody) | no binding (tested: 10 µg/ml antibody) | no binding (tested: 10 µg/ml antibody) |  |  |  |  |  |  |  |  |  |  |  |
| B2 |  |  |  |  | 0.27 nM | 0.15 nM | 3.55 h | no binding (tested: IL17 injected starting with 50 nM) | 0.127 nM | 5.42e-05 s⁻¹ | 426000 M⁻¹ s⁻¹ | 1.72 nM | 1.1 nM | 0.157 nM |  |
| B3 |  |  |  |  |  | < 0.2 nM | 3.63 h | no binding (tested: IL17 injected starting with 50 nM) | 0.0656 nM | 5.31e-05 s⁻¹ | 810000 M⁻¹ s⁻¹ | 1.38 nM | 0.9 nM | 0.08 nM |  |
| B4 | no binding (tested: 10 µg/ml antibody) | no binding (tested: 10 µg/ml antibody) | no binding (tested: 10 µg/ml antibody) | no binding (tested: 10 µg/ml antibody) |  |  |  |  |  |  |  | 3.56 nM | 2.2 nM |  | 4.5 nM |
| B5 | no binding (tested: 10 µg/ml antibody) | no binding (tested: 10 µg/ml antibody) | no binding (tested: 10 µg/ml antibody) | no binding (tested: 10 µg/ml antibody) | 0.26 nM | 0.18 nM |  | no binding (tested: IL17 injected starting with 50 nM) |  |  |  | 1.62 nM | 1.74 nM |  | 1.8 nM |
